Measurements: patent US20110319869A1 (US Dept. of Health and Human Services, published 2011)

B1: NCA peptide, YRPGENLNL (peptide)
peptide: YRPGENLNL
B2: MUC-1 peptide P-1108, REGTINVHDV (peptide)
peptide: REGTINVHDV
B3: MUC-1 peptide P-4, GTQSPFFLLL (peptide)
peptide: GTQSPFFLLL
B4: MUC-1 peptide P-1135, TISDVSVSDV (peptide)
peptide: TISDVSVSDV
B5: MUC-1 peptide P-92 (native), ATWGQDVTSV (peptide)
peptide: ATWGQDVTSV
notes: Synthetic 10-mer from the non-VNTR region of MUC-1
B6: MUC-1 peptide P-1104, TLASHSTKTD (peptide)
peptide: TLASHSTKTD
B7: MUC-1 peptide P-1105, LAFREGTINV (peptide)
peptide: LAFREGTINV
B8: MUC-1 peptide P-94, WGQDVTSVPV (peptide)
peptide: WGQDVTSVPV
B9: MUC-1 peptide P-1069, LQRDISEMFL (peptide)
peptide: LQRDISEMFL
B10: MUC-1 peptide P-1169, VLVALAIVYL (peptide)
peptide: VLVALAIVYL
B11: MUC-1 peptide P-1162, ALLVLVCVLV (peptide)
peptide: ALLVLVCVLV
B12: MUC-1 peptide analogue P-93I (peptide)
peptide: AIWGQDVTSV
notes: also called I-93
B13: MUC-1 agonist peptide P-93L, ALWGQDVTSV (peptide)
peptide: ALWGQDVTSV
notes: also called L-93; MUC-1 peptide
B14: MUC-1 peptide analogue M-93 (peptide)
peptide: AMWGQDVTSV
B15: MUC-1 peptide analogue I-93/L-101 (peptide)
peptide: AIWGQDVTSL
B16: MUC-1 peptide analogue L-93/L-101 (peptide)
peptide: ALWGQDVTSL
B17: MUC-1 peptide analogue M-93/L-101 (peptide)
peptide: AMWGQDVTSL

Each molecule was assayed against T1, HLA-A2 molecule (human) (assay: T2 cell binding assay, flow cytometry with anti-HLA-A2 mAb).
T1 construct: also called HLA-A2 on T2 cells (174CEM-T2; T2A2 cells)
Procedure: (§1) In this assay, increased stability (accumulation) of HLA-A2 molecules on the surface of T2 cells as a consequence of peptide binding is measured by increased binding of antibody directed against HLA-A2 molecule. Briefly, 1×10⁶ cells in serum-free Iscove's modified Dulbecco's complete medium were incubated with peptides at a concentration of 50 μg/ml in 24-well culture plates at 37° C. in 5% CO₂. Flow cytometry for peptide binding was performed using T2 cells and single-color analysis. After cells were washed three times in DPBS, as described above, they were incubated for 1 h with a 1:100 dilution of HLA-A2—specific MAb (One Lambda, Inc.) per 10⁶ cells. UPC-10 (Cappel/Organon Teknika) was used as isotype control. The cells were then washed three times and incubated with 1:100 dilution of FITC-labeled anti-mouse IgG (BD Biosciences). Analysis was conducted with the FACScan, as described above. Cells were maintained on ice during all cell preparation and staining.
The primary amino acid sequence of human MUC-1 was analyzed for consensus motifs for novel HLA-A2 binding peptides.

Molecule | binding result
B1 | no binding (tested: 50 µg/ml peptide)

The molecules below were run against T1, HLA-A2 molecule (assay: T2 cell binding assay: flow cytometry of surface HLA-A2 with anti-HLA-A2 mAb; negative control).

Molecule | T2 binding (relative fluorescence) (relative fluorescence values)
CEA CAP-7 (HLA-A3 binding peptide) | 200

The molecules below were run against T1, HLA-A2 molecule (assay: T2 cell binding assay: flow cytometry of surface HLA-A2 with anti-HLA-A2 mAb after incubation with peptide (50 µg/ml)).
Procedure: as §1, with “staining. […]” for “staining.”

Molecule | T2 binding (relative fluorescence)
B2 | 482 relative fluorescence
B3 | 467 relative fluorescence
B4 | 422 relative fluorescence
B5 | 740 relative fluorescence
B6 | 442 relative fluorescence
B7 | 461 relative fluorescence
B8 | 591 relative fluorescence
B9 | 433 relative fluorescence
B10 | 369 relative fluorescence
B11 | 431 relative fluorescence

Target: T1, HLA-A2 molecule
Assay: as above
Remark: another data set of the same source
Procedure: as §1

Molecule | T2 binding (relative fluorescence)
B5 | 510 relative fluorescence values
B12 | 823 relative fluorescence values
B13 | 821 relative fluorescence values
B14 | 723 relative fluorescence values
B15 | 280 relative fluorescence values
B16 | 736 relative fluorescence values
B17 | 325 relative fluorescence values
